Assay results reported in patent publication US7838294B2, “Inhibitors of the JNK signal transduction pathway and methods of use” (University of Massachusetts, priority 1997, dated 2010).
“Also recorded” adds a separate entry of the source. No end group written: not given here.

What was measured:
Type in all cases: binding
JNK1 = biological target: T1, JNK1 (Homo sapiens, UniProt P45983); assay: GST-fusion pull-down from cell lysates, Flag immunoblot: JNK1; settings: for binding to JNK1: 5 μg GST-fusion protein on glutathione-Sepharose, Flag-JNK1 lysate, one hour 4° C.; for level of binding to JNK1 compared with JNK2: GST pull-down, Flag immunoblot
T1 construct: expressed in transfected cells
Protocol: (§1) To test whether JIP-1 binding to JNK is also isoform-dependent, a binding assay was utilized. Cell lysates (1 ml in TLB) containing JNK1, JNK2, or p38 MAP kinase, each tagged with the Flag epitope, were incubated with 5 μg GST-fusion proteins pre-bound to 10 μl glutathione-Sepharose. The GST fusion proteins used contain residues 127-202 (SEQ ID NO:15), 203-281 (SEQ ID NO:16), 164-240 (SEQ ID NO:17), or 127-281 (SEQ ID NO:4) of JIP-1. The GST-ATF2 fusion protein contains residues 1-109 of ATF2, and the GST-Jun fusion protein contains residues 1-79 of c-Jun. After incubation for one hour at 4° C. and three washes with TLB, bound proteins were detected by protein immunoblot analysis with the M2 monoclonal antibody, which is specific for the Flag epitope. Dérijard, et al., supra; Sluss et al., supra; Gupta et al., supra. […] This finding is consistent with the results of previous studies. In contrast, when GST-JIP-1 fusion proteins containing residues 127-202 or 127-281 of JIP-1 were tested in the assay, these proteins bound both JNK1 and JNK2.
(§2) The GST-JIP-1 fusion proteins containing various portions of the JIP-1 gene were used to define regions of JIP-1 that are required for JNK interaction. A GST-JIP-1 fusion protein containing residues 127-281 of JIP-1 bound both JNK1 and JNK2.
(§3) To more precisely define the JIP-1 sequence required for JNK binding activity, additional […] fusion proteins were constructed. These fusion proteins contained residues 135-202 (SEQ ID NO:18), 144-202 (SEQ ID NO:19), 154-202 (SEQ ID NO:20), 164-202 (SEQ ID NO:21), 127-143 (SEQ ID NO:22), 127-153 (SEQ ID NO:23), or 127-163 (SEQ ID NO:24) of JIP-1. Proteins containing residues 127-202, 135-202, 144-202, […], and 127-163 all bound both JNK1 and JNK2. Thus, JIP-1 residues 144-163 are important for the interaction of JIP-1 with JNK.

JNK2 = biological target: T2, JNK2 (Homo sapiens, UniProt P45984); assay: GST-fusion pull-down from cell lysates, Flag immunoblot: JNK2; settings: 5 μg GST-fusion protein on glutathione-Sepharose, Flag-JNK2 lysate, one hour 4° C.
T2 construct: expressed in transfected cells
Protocol: as §1, §2, §3

[1] = biological target: T3, JIP-1-JNK interaction (JNK1) (Homo sapiens, UniProt P45983); assay: Synthetic peptide competition of JIP-1-JNK interaction (GST-JIP-1 127-281 pull-down); settings: for effect of peptide on JIP-1 binding to JNK1: peptide 0, 4, 8, 16, 32, and 64 μg/ml, GST-JIP-1 (residues 127-281); for inhibition of JIP-1 binding to JNK by peptide: synthetic peptides 64 μg/ml, JNK1 binding to GST-JIP-1 residues 127-281
T3 construct: expressed in transfected cells; GST-JIP-1 from a bacterial pGEX-3X vector
Protocol: The effect of increasing concentrations (0, 4, 8, 16, 32, and 64 μg/ml) of a synthetic peptide corresponding to JIP-1 residues 148-174 (SEQ. ID NO:3) or a control peptide having a scrambled sequence (SEQ ID NO:12) on JIP-1-JNK interaction was examined. Peptides were synthesized using an Applied Biosystems machine. Cell lysates containing Flag epitope-tagged JNK were incubated with GST-JIP-1 (residues 127-281) prebound to glutathione-Sepharose. The beads were washed, and bound proteins were detected by protein immunoblot analysis with a Flag-specific antibody.
The JNK binding domain of JIP-1 contains three amino acids, Lys-155, Thr-159, and Leu-160, that are conserved in the JNK binding domains of ATF2 and c-Jun (FIG. 2). A hydrophobic amino acid, Leu, is found at residue 162 of JIP-1. ATF2 and c-Jun also contain hydrophobic amino acids (ATF2, Phe; c-Jun, Leu) in the position corresponding to residue 162 of JIP-1. To test if these conserved residues are involved in JNK binding, the wild type JIP-1 JBD (residues 148-174) was substituted with glycines in these positions to produce the peptides shown in FIG. 3 (SEQ ID NOs:7-11). The mutant peptides are identical to the wild type peptide except for the indicated glycine substitutions. The binding of JNK1 to GST, as well as a GST fusion protein containing JIP-1 residues 127-281, was examined in the absence and presence of the synthetic peptides (64 μg/ml). A peptide with a scrambled sequence (SEQ ID NO:12) was used as a control. […] In contrast, the control peptide caused no change in JNK binding.
Peptides suspected of having JIP-1 activity can be tested in the JNK binding assay described supra. Peptides are synthesized by methods that are well known to those skilled in the art; for example, using an Applied Biosystems synthesizer. Cell lysates containing Flag epitope-tagged JNK are incubated with GST-JIP-1 (residues 127-281) bound to glutathione-Sepharose, either with or without synthetic peptides (0, 4, 8, 16, 32 or 64 μg/ml), for one hour at 4° C. The beads are washed in TLB, and the bound proteins are detected by protein immunoblot analysis with a Flag-specific antibody, e.g., M2. Synthetic peptides with JIP-1 activity are those which inhibit the interaction of JIP-1 with JNK, as detected in this assay.

T3 sequence (P45983 1-384 isoform P45983-2): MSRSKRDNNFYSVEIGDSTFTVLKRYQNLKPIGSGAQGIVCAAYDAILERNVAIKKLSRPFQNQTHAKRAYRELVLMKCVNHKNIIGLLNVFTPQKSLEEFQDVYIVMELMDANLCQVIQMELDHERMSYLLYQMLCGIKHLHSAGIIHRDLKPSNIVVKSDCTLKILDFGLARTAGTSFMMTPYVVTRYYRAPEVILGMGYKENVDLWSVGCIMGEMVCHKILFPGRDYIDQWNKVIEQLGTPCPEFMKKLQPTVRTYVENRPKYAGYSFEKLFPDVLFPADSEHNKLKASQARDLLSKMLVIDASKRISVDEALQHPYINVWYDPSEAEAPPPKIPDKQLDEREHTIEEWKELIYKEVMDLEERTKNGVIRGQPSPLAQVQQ
T1 sequence (P45983 1-384 isoform P45983-2): as above

binding to JNK1 (JNK1)	binding to JNK2 (JNK2)	effect of peptide on JIP-1 binding to JNK1 [1]	inhibition of JIP-1 binding to JNK by peptide [1]	level of binding to JNK1 compared with JNK2 (JNK1)	Molecule
–	–	no effect	no change	–	SEQ ID NO:12: control peptide having a scrambled sequence (NSLGTDDTQYSRRPPKVRQPNPTFTLL) [reference compound]
–	–	dose-dependent decrease	dose-dependent inhibition	–	SGDTYRPKRPTTLNLFPQVPRSQDTLN [JIP-1 residues 148-174, synthetic peptide corresponding to JIP-1 residues 148-174, core of the JBD]
No JNK binding was detected	No JNK binding was detected	–	–	–	GST-JIP-1 residues 203-281: GST fusion protein containing residues 203-281 of JIP-1 (carboxy terminal region) (protein, UniProt Q9WVI9 203-281, looked up, fragment, GST fusion) PHEHICLSDELPPQGSPVPTQDRGTSTDSPCRRSAATQMAPPSGPPATAPGGRGHSHRDRIHYQADVRLEATEEIYLTP
–	–	–	–	greater than binding to JNK2	GST-Jun: GST fusion protein containing residues 1-79 of c-Jun (protein, left off: a dimerising Fc or GST, GST fusion protein containing residues 1-79 of c-Jun) MTAKMETTFYDDALNASFLPSESGPYGYSNPKILKQSMTLNLADPVGSLKPHLRAKNSDLLTSPDVGLLKLASPELERL

The remaining lines, values behind:

Molecule	binding to JNK1 (JNK1)	binding to JNK2 (JNK2)	effect of peptide on JIP-1 binding to JNK1 [1]	inhibition of JIP-1 binding to JNK by peptide [1]	level of binding to JNK1 compared with JNK2 (JNK1)
GST-JIP-1 residues 127-163: GST fusion protein containing residues 127-163 of JIP-1 (PKAESNQDPAPRSQGQGPGTGSGDTYRPKRPTTLNLF; also: GST fusion; UniProt Q9WVI9 127-163, looked up, fragment)	bound	bound	–	–	–
GST-JIP-1 residues 144-202: GST fusion protein containing residues 144-202 of JIP-1 (PGTGSGDTYRPKRPTTLNLFPQVPRSQDTLNNNSLGKKHSWQDRVSRSSSPLKTGEQTP; also: GST fusion; UniProt Q9WVI9 144-202, looked up, fragment)	bound	bound	–	–	–
GST-JIP-1 residues 154-202: GST fusion protein containing residues 154-202 of JIP-1 (PKRPTTLNLFPQVPRSQDTLNNNSLGKKHSWQDRVSRSSSPLKTGEQTP; also: GST fusion; UniProt Q9WVI9 154-202, looked up, fragment)	bound	bound	–	–	–
GST-JIP-1 residues 127-202: GST fusion protein containing residues 127-202 of JIP-1 (amino terminal region) (protein, UniProt Q9WVI9 127-202, looked up, fragment, GST fusion) PKAESNQDPAPRSQGQGPGTGSGDTYRPKRPTTLNLFPQVPRSQDTLNNNSLGKKHSWQDRVSRSSSPLKTGEQTP	bound; also recorded: JNK binding activity was observed	bound; also recorded: JNK binding activity was observed	–	–	–
GST-ATF2: GST fusion protein containing residues 1-109 of ATF2 (protein, left off: a dimerising Fc or GST, GST fusion protein containing residues 1-109 of ATF2) MKFKLHVNSARQYKDLWNMSDDKPFLCTAPGCGQRFTNEDHLAVHKHKHEMTLKFGPARNDSVIVADQTPTPTRFLKNCEEVGLFNELASPFENEFKKASEDDIKKMPL	–	–	–	–	greater than binding to JNK2
GST-JIP-1 residues 164-240: GST fusion protein containing residues 164-240 of JIP-1 (central region) (protein, UniProt Q9WVI9 164-240, looked up, fragment, GST fusion) PQVPRSQDTLNNNSLGKKHSWQDRVSRSSSPLKTGEQTPPHEHICLSDELPPQGSPVPTQDRGTSTDSPCRRSAATQ	No JNK binding was detected	No JNK binding was detected	–	–	–
GST-JIP-1 residues 135-202: GST fusion protein containing residues 135-202 of JIP-1 (protein, UniProt Q9WVI9 135-202, looked up, fragment, GST fusion) PAPRSQGQGPGTGSGDTYRPKRPTTLNLFPQVPRSQDTLNNNSLGKKHSWQDRVSRSSSPLKTGEQTP	bound	bound	–	–	–
GST-JIP-1 residues 127-281: GST fusion protein containing residues 127-281 of JIP-1 (protein, left off: a dimerising Fc or GST) PKAESNQDPAPRSQGQGPGTGSGDTYRPKRPTTLNLFPQVPRSQDTLNNNSLGKKHSWQDRVSRSSSPLKTGEQTPPHEHICLSDELPPQGSPVPTQDRGTSTDSPCRRSAATQMAPPSGPPATAPGGRGHSHRDRIHYQADVRLEATEEIYLTP	bound	bound	–	–	–
